Measurements: article PMC11532494 (Nature Communications, 2024)
Several values for one entry are separate records, joined by “and”; a condition that tells them apart may be missing. Equal values may be shown once. Read-outs that look alike come from different tables or passages of the source. No end group written: not given here. *: point of attachment. AMC = Cc1cc(=O)oc2cc(N*)ccc12

Legend:
VsHdaH (1b) = format: biochemical, Vibrio sp.; settings: for RFU means, VsHdaH (1b) / RFU*2 means, VsHdaH (1b): means of two measurements; for [AMC] (nM), VsHdaH (1b), means / [AMC] (nM), VsHdaH (1b): substrate screening; for [AMC] (nM), VsHdaH (1b), means: mean of two measurements
RsPrpH (1b) = experiment: Substrate screening assay (acyl-peptide-AMC); format: biochemical, Rhizorhabdus sp.
RwDmhA (1b) = RwDmhA (1b) (Rhizorhabdus wittichii, UniProt A0A067XIQ6); format: biochemical
KpHdaH (1b) = KpHdaH (1b) (Klebsiella pneumoniae, UniProt A0A377Z5F6); format: biochemical; settings: for RFU means, KpHdaH (1b) / RFU*2 means, KpHdaH (1b): means of two measurements; for [AMC] (nM), KpHdaH (1b), means / [AMC] (nM), KpHdaH (1b): substrate screening; for [AMC] (nM), KpHdaH (1b), means: mean of two measurements
BsAcuC (2c) = target: T1, BsAcuC (2c) (Bacillus subtilis, UniProt P39067); experiment: Substrate screening assay (acyl-peptide-AMC); format: biochemical; settings: for RFU means, BsAcuC (2c) / RFU*2 means, BsAcuC (2c): means of two measurements; for [AMC] (nM), BsAcuC (2c), means: substrate screening, mean of two measurements; for RFU*2, BsAcuC (2c): two measurements, single values
T1 construct: made in house; host or cells: E. coli BL21 (DE3)
T1 sequence (P39067 1-387): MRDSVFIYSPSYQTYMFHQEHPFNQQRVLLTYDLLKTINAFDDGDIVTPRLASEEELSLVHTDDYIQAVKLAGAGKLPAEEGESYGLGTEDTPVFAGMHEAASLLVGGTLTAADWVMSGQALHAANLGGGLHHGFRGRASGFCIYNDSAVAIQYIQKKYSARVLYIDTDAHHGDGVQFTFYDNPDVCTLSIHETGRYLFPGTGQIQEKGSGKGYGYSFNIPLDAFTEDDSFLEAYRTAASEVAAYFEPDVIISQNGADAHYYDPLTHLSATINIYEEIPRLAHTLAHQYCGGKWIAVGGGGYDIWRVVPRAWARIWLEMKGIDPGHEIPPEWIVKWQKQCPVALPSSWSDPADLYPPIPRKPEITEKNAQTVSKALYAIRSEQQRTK
Description: (§1) Experiments with SIRT2 and SIRT5 were supplemented with NAD^+ (500 µM). Thereafter, a solution of trypsin (25 µL, 5.0 mg/mL; final concentration of 2.5 mg/mL) was added, and the development of the assay was allowed to proceed for 90 min at room temperature before fluorescence analysis. […] To this end, a single category is given to all conversions >48% on the heatmap. […] For the H4-derived peptide LGKbio no positive control was available.

VcHdaH (5b) = format: biochemical, Vibrio cholerae; settings: for RFU means, VcHdaH (5b) / RFU*2 means, VcHdaH (5b): means of two measurements; for [AMC] (nM), VcHdaH (5b), means: substrate screening, mean of two measurements
PsApaH (4) = PsApaH (4) (Pseudomonas sp. M30-35, UniProt A0A1Y0KY79); format: biochemical; settings: for RFU means, PsApaH (4) / RFU*2 means, PsApaH (4): means of two measurements; for [AMC] (nM), PsApaH (4), means / [AMC] (nM), PsApaH (4): substrate screening; for [AMC] (nM), PsApaH (4), means: mean of two measurements
Description: as §1

LcApaH (3) = LcApaH (3) (Legionella cherrii, UniProt A0A0W0SGS1); format: biochemical
LpApaH (3) = LpApaH (3) (Legionella pneumophila, UniProt A0A2S6EWV0); format: biochemical
Controls [1] = format: biochemical
Controls [2] = format: biochemical; remark: listed apart in the source

| Substance | RFU means, VsHdaH (1b) (VsHdaH (1b)) [RFU] | RFU*2 means, VsHdaH (1b) (VsHdaH (1b)) [RFU*2] | [AMC] (nM), VsHdaH (1b), means (VsHdaH (1b)) [nM] | [AMC] (nM), VsHdaH (1b) (VsHdaH (1b); measurement 1 of two) [nM] | [AMC] (nM), VsHdaH (1b) (VsHdaH (1b); measurement 2 of two) [nM] | RFU means, RsPrpH (1b) (RsPrpH (1b)) [RFU] | RFU*2 means, RsPrpH (1b) (RsPrpH (1b)) [RFU*2] | [AMC] (nM), RsPrpH (1b), means (RsPrpH (1b)) [nM] | RFU means, RwDmhA (1b) (RwDmhA (1b)) [RFU] | RFU*2 means, RwDmhA (1b) (RwDmhA (1b)) [RFU*2] | [AMC] (nM), RwDmhA (1b), means (RwDmhA (1b)) [nM] | RFU means, KpHdaH (1b) (KpHdaH (1b)) [RFU] | RFU*2 means, KpHdaH (1b) (KpHdaH (1b)) [RFU*2] | [AMC] (nM), KpHdaH (1b), means (KpHdaH (1b)) [nM] | [AMC] (nM), KpHdaH (1b) (KpHdaH (1b); measurement 1 of two) [nM] | [AMC] (nM), KpHdaH (1b) (KpHdaH (1b); measurement 2 of two) [nM] | RFU means, BsAcuC (2c) (BsAcuC (2c)) [RFU] | RFU*2 means, BsAcuC (2c) (BsAcuC (2c)) [RFU*2] | [AMC] (nM), BsAcuC (2c), means (BsAcuC (2c)) [nM] | RFU*2, BsAcuC (2c) (BsAcuC (2c)) | further results |
| --- | --- | --- | --- | --- | --- | --- | --- | --- | --- | --- | --- | --- | --- | --- | --- | --- | --- | --- | --- | --- | --- |
| QPKKhex (QPKK-{AMC}; not fully specified (residue 4); printed as QPKKhex; also: hexanoyl-lysine (which Lys not given here); UniProt P04637 317-320, looked up, fragment) | 66.5 | 133 | 64.94 | 35.16 | 94.73 | -23.5 | -47 | -22.95 | 55 | 110 | 53.71 | 92 | 184 | 89.84 | 166.02 | 13.67 | 1487.5 | 2975 | 1452.64 | 3440 RFU*2 and 2510 RFU*2 | RFU means, VcHdaH (5b) (VcHdaH (5b)): 50.5 RFU; RFU*2 means, VcHdaH (5b) (VcHdaH (5b)): 101 RFU*2; [AMC] (nM), VcHdaH (5b), means (VcHdaH (5b)): 49.32 nM; RFU means, PsApaH (4) (PsApaH (4)): 94.5 RFU; RFU*2 means, PsApaH (4) (PsApaH (4)): 189 RFU*2; [AMC] (nM), PsApaH (4), means (PsApaH (4)): 92.29 nM; [AMC] (nM), PsApaH (4) (PsApaH (4); measurement 1 of two): 125.00 nM; [AMC] (nM), PsApaH (4) (PsApaH (4); measurement 2 of two): 59.57 nM; RFU means, LcApaH (3) (LcApaH (3)): 70 RFU; RFU*2 means, LcApaH (3) (LcApaH (3)): 140 RFU*2; [AMC] (nM), LcApaH (3), means (LcApaH (3)): 68.36 nM; RFU means, LpApaH (3) (LpApaH (3)): 57.5 RFU; RFU*2 means, LpApaH (3) (LpApaH (3)): 115 RFU*2; [AMC] (nM), LpApaH (3), means (LpApaH (3)): 56.15 nM; RFU means, controls (Controls [1]): 3600.5 RFU; RFU*2, controls (Controls [1]): 6176 RFU*2 and 8226 RFU*2; RFU*2 means, controls (Controls [1]): 7201 RFU*2; RFU, controls (Controls [1]): 3088 RFU and 4113 RFU; [AMC] (nM), controls, means (Controls [2]): 3516.11 nM |
| QPKKlau (QPKK-{AMC}; not fully specified (residue 4); printed as QPKKlau; also: lauroyl-lysine (which Lys not given here); UniProt P04637 317-320, looked up, fragment) | -74 | -148 | -72.27 | -150.39 | 5.86 | -143.5 | -287 | -140.14 | -41 | -82 | -40.04 | -136.5 | -273 | -133.30 | -172.85 | -93.75 | 849.5 | 1699 | 829.59 | 2008 RFU*2 and 1390 RFU*2 | RFU means, VcHdaH (5b) (VcHdaH (5b)): -82 RFU; RFU*2 means, VcHdaH (5b) (VcHdaH (5b)): -164 RFU*2; [AMC] (nM), VcHdaH (5b), means (VcHdaH (5b)): -80.08 nM; RFU means, PsApaH (4) (PsApaH (4)): 131 RFU; RFU*2 means, PsApaH (4) (PsApaH (4)): 262 RFU*2; [AMC] (nM), PsApaH (4), means (PsApaH (4)): 127.93 nM; [AMC] (nM), PsApaH (4) (PsApaH (4); measurement 1 of two): 191.41 nM; [AMC] (nM), PsApaH (4) (PsApaH (4); measurement 2 of two): 64.45 nM; RFU means, LcApaH (3) (LcApaH (3)): 6.5 RFU; RFU*2 means, LcApaH (3) (LcApaH (3)): 13 RFU*2; [AMC] (nM), LcApaH (3), means (LcApaH (3)): 6.35 nM; RFU means, LpApaH (3) (LpApaH (3)): 10.5 RFU; RFU*2 means, LpApaH (3) (LpApaH (3)): 21 RFU*2; [AMC] (nM), LpApaH (3), means (LpApaH (3)): 10.25 nM; RFU means, controls (Controls [1]): 11610 RFU; RFU*2, controls (Controls [1]): 21150 RFU*2 and 25290 RFU*2; RFU*2 means, controls (Controls [1]): 23220 RFU*2; RFU, controls (Controls [1]): 10575 RFU and 12645 RFU; [AMC] (nM), controls, means (Controls [2]): 11337.89 nM |
